Results: patent US20250026844A1 (SHANDONG SIMCERE BIOPHARMACEUTICAL, published 2025)
Values joined by “and” are separate entries in the source; they are usually repeats but may differ in a detail not shown here. Equal entries are not always repeated. Where two headings read alike, the source gives them in different places.

How the values were obtained:
[1] = target: T1, human BCMA-His protein (human, UniProt Q02223 1-54); assay: SPR (Biacore), antibody captured on Protein A chip, BCMA-His in solution
T1 construct: Bought protein; also called human BCMA protein; huBCMA-His; not shown: His tag
T1 sequence (looked up): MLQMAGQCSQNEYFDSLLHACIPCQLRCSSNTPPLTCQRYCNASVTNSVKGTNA
Experimental: (§1) The flow cell was set to 25° C. The sample block was set to 16° C. Both were pretreated with the running buffer. In each cycle, an antibody to be detected was first captured with a Protein A chip, and then a single concentration of BCMA antigen protein was injected. The binding and dissociation processes of the antibody and the antigen protein were recorded, and finally Glycine pH 1.5 (GE Healthcare; BR-1003-54) was used to complete chip regeneration. Binding was measured by injecting different concentrations of BCMA-His in solution for 240 s with a flow rate of 30 μL/min. The concentration started from 200 nM (see the detailed results for the actual concentration in the test) and was diluted at 1:1, making a total of 5 concentrations. The dissociation phase was monitored for up to 600 s and was triggered by switching from sample solution to running buffer. The surface was regenerated by washing with a 10 mM glycine solution (pH 1.5) for 30 s at a flow rate of 30 μL/min. Bulk refractive index difference was corrected by subtracting the response obtained from the goat anti-human Fc surface. Blank injection was also subtracted (=double reference). For calculation of apparent KD and other kinetic parameters, Langmuir 1:1 model was used. The binding rate (Kₐ), dissociation rate (Kdis) and binding affinity (KD) of the recombinant candidate antibody to human BCMA protein are shown in the table, wherein REGN5459-hlgG1 antibody was used as a control.

[2] = target: T2, human BCMA on cells (human, UniProt Q02223 1-184); assay: FACS, U266 cells
T2 construct: whole, on cells; also called H929 cells; U266 cells
T2 sequence (looked up): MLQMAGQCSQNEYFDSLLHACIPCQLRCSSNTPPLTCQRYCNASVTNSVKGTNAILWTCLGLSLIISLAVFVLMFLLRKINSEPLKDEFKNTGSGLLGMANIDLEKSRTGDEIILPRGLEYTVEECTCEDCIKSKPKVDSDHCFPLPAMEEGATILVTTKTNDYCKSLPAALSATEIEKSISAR
Experimental: (§2) The desired cells were scale-up cultured in T-75 cell culture flasks to the logarithmic growth phase, and the cells were pipetted into a single cell suspension. After the cells were counted, the cells were centrifuged and the cell pellet was resuspended in FACS buffer (PBS+2% fetal calf serum) to 2×10⁶ cells per ml, and the suspension was added to the 96-well FACS reaction plate at 50 μl per well, then the sample to be tested of the candidate antibody was added at 50 μl per well and the mixture was incubated at 4° C. for 1 h. The obtained mixture was centrifuged and washed 3 times with a PBS buffer. Secondary antibody anti-hlgG(Fc) Alexa 647 (purchased from Jackson, catalog number: 109-605-098) was added at 50 μl/well, and incubated on ice for 1 h. The obtained mixture was centrifuged and washed 3 times with a PBS buffer. 100 μl of the mixture was taken for detection and result analysis by FACS (FACS Canto™, purchased from BD Company). Data analysis was performed by software (FlowJo) to obtain the mean fluorescence intensity (MFI) of the cells. Then, a software (GraphPad Prism8) was used for analysis, data fitting and EC50 calculation. BCMA-Lab05, BCMA-Lab06, and BCMA-Lab08 had poor binding to H929 and U266 cells, while the other antibodies performed better.
(§3) The specific method was the same as in Example 4(B).

[3] = target: T1, human BCMA-His protein; assay: SPR (Biacore), antibody captured on Protein A chip, BCMA-His in solution; remark: listed apart in the source
Experimental: as §1
According to the method in Example 5, Biacore was used to detect the affinity of the recombinant antibodies to human BCMA protein.

[4] = target: T3, monkey BCMA-His protein (monkey, UniProt A0A2K5UD97 1-53); assay: ELISA, plate coated with monkey BCMA-His 1 ug/mL, antibody titrated from 100 nM, HRP secondary antibody, OD450
T3 construct: Bought protein; also called monkey BCMA protein; CynoBCMA-his
T3 sequence (A0A2K5UD97 entry or part of it limits assumed): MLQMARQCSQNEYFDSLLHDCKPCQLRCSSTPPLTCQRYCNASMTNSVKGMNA
Experimental: (§4) The specific method was as follows: Human BCMA protein (purchased from Acro, catalog number: BCA-H522y) and monkey BCMA protein (purchased from Acro, catalog number: BCA-C52H7) were diluted with PBS to a final concentration of 1 μg/mL, respectively, and then added to a 96-well ELISA plate at 50 al/well. The plate was sealed with a plastic film and incubated overnight at 4° C., the plate was washed twice with PBS the next day, and then a blocking solution [PBS+2% (w/v) BSA] was added for blocking at room temperature for 2 h. The blocking solution was discarded, the plate was washed 3 times with PBS, and 100 nM BCMA recombinant chimeric nanobody diluted gradiently or negative control antibody was added at 50 μl/well. After incubation at 37° C. for 2 h, the plate was washed 3 times with PBS. HRP (horseradish peroxidase)-labeled secondary antibody (purchased from Merck, catalog number: AP113P) was added, and incubated at 37° C. for 1 h, and the plate was washed 5 times with PBS. TMB substrate was added at 50 μl/well, and incubated at room temperature for 10 min, then a stop solution (1.0 M HCl) was added at 50 μl/well. The OD450 nm values were read by an ELISA microplate reader (Multimode Plate Reader, EnSight, purchased from Perkin Elmer). All antibodies bound to human BCMA protein. BCMA-Lab06 and BCMA-Lab07 had no cross-binding activity with monkey BCMA protein. […]

[5] = target: T2, human BCMA on cells; assay: FACS, H929 cells
Experimental: as §2

[6] = target: T2, human BCMA on cells; assay: FACS, H929 cells; remark: listed apart in the source
Experimental: as §2, §3

[7] = target: T2, human BCMA on cells; assay: FACS, U266 cells; remark: listed apart in the source
Experimental: as §2

[8] = target: T3, monkey BCMA-His protein; assay: ELISA, plate coated with monkey BCMA-His 1 ug/mL, antibody titrated from 100 nM, HRP secondary antibody, OD450; remark: listed apart in the source
Experimental: The binding activity of the control antibody to human BCMA-His protein (purchased from Acro, catalog number: BCA-H522y) and monkey BCMA-His protein (purchased from Acro, catalog number: BCA-C52H7) was detected by ELISA. The specific method was as follows: The antigen protein was diluted with PBS to a final concentration of 1 μg/mL, and then added to a 96-well ELISA plate at 50 μl per well. The plate was sealed with a plastic film and incubated overnight at 4° C., the plate was washed twice with PBS the next day, and then a blocking solution [PBS+2% (w/v) BSA] was added for blocking at room temperature for 2 h. The blocking solution was poured off and 50 μl of 100 nM serially diluted control antibody or negative control antibody was added to each well. After incubation at 37° C. for 2 h, the plate was washed 3 times with PBS. HRP (horseradish peroxidase)-labeled secondary antibody (purchased from Merck, catalog number: AP113P) was added, and incubated at 37° C. for 1 h, and the plate was washed 5 times with PBS. TMB substrate was added at 50 μl/well, and incubated at room temperature for 10 min, then a stop solution (1.0 M HCl) was added at 50 al/well. The OD450 nm values were read by an ELISA microplate reader (Multimode Plate Reader, EnSight, purchased from Perkin Elmer). The results are shown in Tables 2 and 3 and FIGS. 1A and 1B. […]

[9] = target: T2, human BCMA on cells; assay: FACS, U266 cells; remark: listed apart in the source
Experimental: (§5) H929 cells and U266 cells were scale-up cultured in T-75 cell culture flasks to the logarithmic growth phase, and the cells were pipetted into a single cell suspension. After the cells were counted, the cells were centrifuged and the cell pellet was resuspended in FACS buffer (PBS+2% fetal calf serum) to 2×10⁶ cells per ml, and the suspension was added to the 96-well FACS reaction plate at 50 μl per well, REGN5459-hlgG1 and HPN217-hHcAb antibodies were used as primary antibodies, and APC-labeled goat anti-human IgG (H+L) secondary antibodies (purchased from Jackson, catalog number: 109-605-088) were detected and analyzed by FACS (FACS Canto™, purchased from BD Corporation). The results are shown in Table 4 and FIGS. 2A and 2B, and indicate that both H929 cells and U266 cells can bind to REGN5459-hlgG1 and HPN217-hHcAb antibodies.

[10] = target: T1, human BCMA-His protein; assay: ELISA, plate coated with human BCMA-His 1 ug/mL, antibody titrated from 100 nM, HRP secondary antibody, OD450
Experimental: as §4

[11] = target: T1, human BCMA-His protein; assay: ligand competition ELISA: plate coated with human BCMA protein 1 ug/mL, antibody titrated, blocked ligand hAPRIL-biotin 0.5 ug/mL, OD450
[12] = target: T1, human BCMA-His protein; assay: SPR (Biacore), antibody captured on Protein A chip, BCMA-His in solution; remark: listed apart in the source
Experimental: as §1
The specific operating method referred to Example 5. The binding rate (Ka), dissociation rate (Kdis) and binding affinity (KD) of the humanized candidate nanobodies to human BCMA protein are shown Table 18, wherein REGN5459-hlgG1 antibody was used as a control.

[13] = target: T1, human BCMA-His protein; assay: ligand competition ELISA: plate coated with human BCMA protein 1 ug/mL, antibody titrated, blocked ligand hAPRIL-biotin 0.5 ug/mL, OD450; remark: listed apart in the source
Experimental: The antigen protein was diluted with PBS to a final concentration of 1 μg/mL, and then added to a 96-well ELISA plate at 50 μl per well. The plate was sealed with a plastic film and incubated overnight at 4° C., the plate was washed twice with PBS the next day, and then a blocking solution [PBS+2% (w/v) BSA] was added for blocking at room temperature for 2 h. The blocking solution was discarded, the plate was washed 3 times with PBS, and 200 nM BCMA recombinant chimeric nanobody diluted gradiently or negative control antibody was added at 50 μl/well. hAPRIL-biotin (purchased from Acro, catalog number: APL-H82F5) was diluted to 0.5 μg/mL, with 50 μl per well. After incubation at 37° C. for 1.5 h, the plate was washed 3 times with PBS. HRP (horseradish peroxidase)-labeled secondary antibody (purchased from Sigma, catalog number: S2438-250 μg) was added, and incubated at 37° C. for 1 h, and the plate was washed 5 times with PBS. TMB substrate was added at 50 μl/well, and incubated at room temperature for 10 min, then a stop solution (1.0 M HCl) was added at 50 al/well. The OD450 nm values were read by an ELISA microplate reader (Multimode Plate Reader, EnSight, purchased from Perkin Elmer). BCMA-Lab05, BCMA-Lab06 and BCMA-Lab08 had average blocking effects, while the other antibodies had good blocking effects.

[14] = target: T2, human BCMA on cells; assay: FACS, H929 cells; remark: listed apart in the source
Experimental: as §5

B1: REGN5459-hIgG1 (antibody, V domains shown)
VH: EVQLVESGGGLVQPGGSLRLSCAASGFTFSNFWMTWVRQAPGKGLEWVANMNQDGSEKYYVDSVKGRFTISRDNAKSSLYLQMNSLRAEDTAVYYCARDREYCISTSCYDDFDYWGQGTLVTVSS
VL: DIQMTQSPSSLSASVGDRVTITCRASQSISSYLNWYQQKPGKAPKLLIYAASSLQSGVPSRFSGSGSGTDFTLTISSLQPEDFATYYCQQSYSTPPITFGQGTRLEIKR
notes: Control antibody; also called REGN5459-hlgG1; BCMA antibody
Question: For B1, which Kd [1] is on record?
Answer: Its Kd is 0.233 nM.

Question: And the koff [1]?
Answer: The koff was 0.000178 s⁻¹.

Question: What about the kon [1] of the same binder?
Answer: Its kon is 766000 M⁻¹ s⁻¹.

Question: And the EC50 [2]?
Answer: The EC50 was 16.6 nM and 32.2 nM.

Question: And the Kd [3]?
Answer: Its Kd is 0.267 nM.

Question: And the koff [3]?
Answer: Its koff is 0.000197 s⁻¹.

Question: What about the kon [3] of the same binder?
Answer: The kon was 739000 M⁻¹ s⁻¹.

Question: What about the “EC50 (read off the curve)” value [4] of the same binder?
Answer: Its value is about 0.1 nM.

Question: And the EC50 [5]?
Answer: Its EC50 is 5.24 nM and 9.39 nM and 6.46 nM.

Question: And the EC50 [6]?
Answer: The EC50 was 9.39 nM and 13.2 nM.

Question: What about the EC50 [7] of the same binder?
Answer: The EC50 was 7.14 nM and 16.6 nM and 9.49 nM.

Question: And the “EC50 (read off the curve)” value [8]?
Answer: The value was about 0.1 nM.

Question: What about the EC50 [9] of the same binder?
Answer: Its EC50 is 9.12 nM.

Question: And the “EC50 (read off the curve)” value [10]?
Answer: Its value is about 0.1 nM.

Question: And the “IC50 (read off the curve)” value [11]?
Answer: The value was about 5 nM.

Question: What about the Kd [12] of the same binder?
Answer: The Kd was 0.208 nM.

Question: And the koff [12]?
Answer: Its koff is 0.000162 s⁻¹.

Question: What about the kon [12] of the same binder?
Answer: The kon was 781000 M⁻¹ s⁻¹.

Question: What about the “IC50 (read off the curve)” value [13] of the same binder?
Answer: The value was ~6 nM and ~5 nM.

Question: And the EC50 [14]?
Answer: Its EC50 is 6.78 nM.
